Common to all, as to type: cell-based, human
One assay concerns HK-2 cells. The assay is described as follows: STAT phosphorylation in HK-2 cells treated with RNLS. An excerpt:
STAT3 binds to the promoter region of the RNLS gene and increases its expression (Sonawane et al., 2014 Biochemistry. 53(44):6878-6892).

The next assay concerns MiaPaCa2 cells. The experiment in a line: FACS cell cycle analysis with rRNLS. Conditions: 30 μg/ml. On the procedure:
For cell cycle analysis, cultured cells were dissociated using 10 mM EDTA, fixed with ice-cold 70% ethanol, digested with RNAse A, and stained with propidium iodide. Propidium staining was detected using a BD FACSCalibur flow cytometer (BD Biosciences, San Jose, Calif., USA), and analyzed using CellQuest software.

Assay [1] relates to A375.S2, MeWo, SkMel5 and SkMel28 cells. The experiment in a line: survival of serum-starved melanoma cells, WST-1. Conditions: 30 ug/ml, 72 hrs. On the procedure:
Total cell number and percentage of live cells were assessed by trypan blue exclusion, and cells were counted using a BioRad TC10 automated cell counter. For additional studies, cell viability was determined using WST-1 reagent (Roche Diagnostics, Indianapolis, Ind., USA) according to the manufacturers' instruction. Absorbances were read using a microplate reader (Power Waves XS, BioTek Instruments, Winooski, Vt., USA).
RNLS-mediated signaling is anti-apoptotic, and protects normal cells exposed to toxic stress from apoptotic death (Wang et al., 2014 J Am Soc Nephrol.; Lee et al., 2013 J Am Soc Nephrol. 24:445-55). To explore if RNLS signaling favored the survival of cancer cells, either recombinant RNLS (rRNLS) or bovine serum albumin (BSA) was added to serum-starved melanoma cells (A375.S2, MeWo, SkMel5, and SkMel28) in culture, and cell viability was determined. […] The total cell number and percentage of live cells of those treated with RNLS were counted to determine if the apparent increase in proliferative rate was due an increase in cell proliferation or to a decrease in the rate of apoptosis.
Background: Tetrazolium assays rely on reduction of a dye to a coloured formazan, in cell work by metabolically active cells.

The subject of the next assay is Panc1 cells. The experiment in a line: western blot of p38 and STAT3 phosphorylation. An excerpt:
FIG. 27, comprising FIGS. 27A through 27E, is a series of images and charts showing the interaction between RNLS and STAT3, and the mechanistic model of inhibition by m28-RNLS. FIG. 27A is an image showing activation of STAT3 by RNLS in Panc1 cells; Panc1 cells in culture treated with either BSA or RNLS, and STAT3 phosphorylation assessed by western blot; p-Ser^727-STAT3: phosphorylation at serine 727, p-Y^705-STAT3: phosphorylation at tyrosine 705; representative study. FIG. 27B is a chart depicting the quantification of STAT3 phosphorylation with RNLS; signals normalized to total STAT3; n=3, *=P<0.05. […] FIG. 27D is a chart showing the quantification of STAT3 phosphorylation with m28-RNLS; signals normalized to GAPDH loading control; n=3, *=P<0.05. FIG. 27E depicts the proposed mechanistic model for antitumor activity of m28-RNLS.
(A western blot detects proteins with antibodies after separation by electrophoresis.)

B1: rRNLS: recombinant human RNLS (renalase) (protein, UniProt Q5VYX0 18-342, looked up)
Renalase: ALLRRQTSGPLYLAVWDKAEDSGGRMTTACSPHNPQCTADLGAQYITCTPHYAKKHQRFYDELLAYGVLRPLSSPIEGMVMKEGDCNFVAPQGISSIIKHYLKESGAEVYFRHRVTQINLRDDKWEVSKQTGSPEQFDLIVLTMPVPEILQLQGDITTLISECQRQQLEAVSYSSRYALGLFYEAGTKIDVPWAGQYITSNPCIRFVSIDNKKRNIESSEIGPSLVIHTTVPFGVTYLEHSIEDVQELVFQQLENILPGLPQPIATKCQKWRHSQVTNAAANCPGQMTLHHKPFLACGGDGFTQSNFDGCITSALCVLEALKNYI
In the case of B1, in the assay with HK-2 cells, the STAT1 result is recorded as “unaffected”, the “increase of STAT3 phosphorylation at serine 727 (p-Ser727-STAT3)” value is given as 2 fold and the “increase of STAT3 phosphorylation at tyrosine 705 (p-Y705-STAT3)” value turned out to be 4 fold. In the assay on MiaPaCa2 cells, the “cell cycle progression compared to BSA” value was “no effect on cell cycle progression”. Besides, in assay [1], the “survival of serum-starved melanoma cells compared to BSA” value is on record as “markedly increased the survival”. For the same molecule, the “phosphorylated STAT3 (p-Ser727-STAT3 and p-Y705-STAT3) after RNLS” value with Panc1 cells is reported as “rapid increase”.

For the origin of these results see US20210355235A1, “Compositions and Methods For Treating Cancer with Anti-Renalase antibodies and Anti-PD1 antibodies” (YALE UNIVERSITY, priority 2017, published 2021).
